This is an account of results in patent US20120082682A1 (GlaxoSmithKline, published 2012).

Assay [1] has as its target T1, human IL-4 (recombinant E. coli-expressed) (human, UniProt P05112 25-153).
T1 sequence (looked up): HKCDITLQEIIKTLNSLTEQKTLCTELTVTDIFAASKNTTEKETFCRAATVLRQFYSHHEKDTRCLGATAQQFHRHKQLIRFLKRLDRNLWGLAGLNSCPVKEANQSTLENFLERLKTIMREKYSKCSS
Put plainly: Biacore T100 SPR, Protein A capture (CM5), human IL4 analyte, 1:1 fit. The method, then:
(§1) Protein A was immobilised on a CM5 chip by primary amine coupling; this surface was used as a capture surface for the antibody molecules to be tested.
(§2) All binding curves were double referenced with a 0 nM injection (i.e. buffer alone). Regeneration of the Protein A surface was with 50 mM NaOH. The assay was run at 25° C. using HBS-EP as running buffer. The data was fitted to 1:1 model inherent to the Biacore T100 analysis software.
In general terms: In SPR one partner is held on a chip, and binding of the other changes the refractive index at the surface.

The target of assay [2] is T1, human IL-4 (recombinant E. …). The experiment in a line: direct binding ELISA, plate coated with 5 ug/ml human IL-4, anti-human kappa light chain-HRP detection, absorbance at 490 nm. The method, then: 96-well high binding plates were coated with 5 μg/ml human IL-4 (made at GSK) in NaHCO₃ and stored overnight at 4° C. The plates were washed twice with Tris-Buffered Saline with 0.05% of Tween-20 (TBST). 100 μL of blocking solution (1% BSA in TBST buffer) was added in each well and the plates were incubated for at least one hour at room temperature. The mAbdAbs were successively diluted across the plates in blocking solution. After one hour incubation, the plates were washed three times. Goat anti-human kappa light chain specific peroxidase conjugated antibody (Sigma A7164) was diluted in blocking solution to 1 μg/mL and 50 μL was added to each well. The plates were incubated for one hour. After another three washing steps, 50 μl of OPD (o-phenylenediamine dihydrochloride) SigmaFast substrate solution was added to each well and the reaction was stopped after about 5 minutes by addition of 25 μL of 3M sulphuric acid. Absorbance was read at 490 nm using the VersaMax Tunable Microplate Reader (Molecular Devices) using a basic endpoint protocol.
(In an ELISA, binding on a coated surface is turned into a signal by an enzyme label.)

The target is the same in assay [3]. The experiment in a line: Biacore T100 SPR, Protein A capture (CM5), 1:1 fit; paragraph 260 calls Table 20 IL13, its footnote and values point to IL4. The procedure: (§3) Protein A was immobilised on a CM5 chip by primary amine coupling; this surface was used as a capture surface for the antibody molecules to be tested. […] Regeneration the Protein A surface was with 50 mM NaOH. The assay was run at 25° C. using HBS-EP as running buffer. The data was fitted to 1:1 model inherent to the Biacore T100 analysis software.

In assay [4] the target is T2, human IL-13 (recombinant E. coli-expressed) (human, UniProt P35225 35-146).
T2 construct: also called hIL-13
The experiment in a line: Biacore T100 SPR, Protein A capture (CM5), human IL13 analyte, 1:1 fit. The method, then:
Protein A was immobilised on a CM5 chip by primary amine coupling; this surface was used as a capture surface for the antibody molecules to be tested. […] All binding curves were double referenced with a 0 nM injection (i.e. buffer alone).
Regeneration of the Protein A surface was with 50 mM NaOH. The assay was run at 25° C. using HBS-EP as running buffer. The data was fitted to 1:1 model inherent to the Biacore T100 analysis software.

Assay [5] deals with T1, human IL-4 (recombinant E. …). Put plainly: cell-based or functional assay.
Assay [6] shares this target. Put plainly: Biacore T100 SPR, Protein A capture (CM5), human IL4 analyte, 1:1 fit. The method, then: Purified mAbs and mAbdAb constructs were tested in a BIAcore assay to determine whether the mutation of position 89 had any effect on the binding of the dAb to IL-4.
Protein A was immobilised on a CM5 chip by primary amine coupling; this surface was used as a capture surface for the antibody molecules to be tested. […] Regeneration of the […] surface was achieved using 50 mM NaOH. The assay was run at 25° C. using HBS-EP as running buffer. The data was fitted to 1:1 model inherent to the Biacore T100 analysis software.
This is another data set of the same source.

The target in assay [7] is T2, human IL-13 (recombinant E. …). Put plainly: cell-based or functional assay.
Assay [8] has the same target. Put plainly: Biacore T100 SPR, Protein A capture (CM5), 1:1 fit; paragraph 260 calls Table 21 IL4, the values match IL13 (tables seem swapped). The procedure:
as §3

Assay [9] deals with T1, human IL-4 (recombinant E. …). Put plainly: Biacore T100 SPR, Protein A capture (CM5), human IL4 analyte. The procedure:
as §1, §2

Assay [10] shares this target. The experiment in a line: Biacore T100 SPR, Protein A capture (CM5), human IL4 analyte, 1:1 fit; footnote: impossible on-rate. The procedure:
as §1, §2

Assay [11] has the same target. Put plainly: Biacore T100 SPR, Protein A capture (CM5), human IL4 analyte, 1:1 fit; footnote: rates not measurable. The method, then: as §1, §2
The target is the same in assay [12]. Put plainly: Biacore T100 SPR, Protein A capture (C1 chip), human IL4 analyte, 1:1 fit; on-rate beyond the sensitivity of Biacore (footnote). The procedure: (§4) Protein A was immobilised on a Cl chip by primary amine coupling; this surface was used as a capture surface for the antibody molecules to be tested. […] Regeneration the Protein A surface was with 100 mM Phosphoric acid. The assay was run at 25° C. using HBS-EP as running buffer. The data was fitted to 1:1 model inherent to the Biacore T100 analysis software.

Assay [13] has the same target. The experiment in a line: Biacore T100 SPR, Protein A capture (C1 chip), human IL4 analyte, 1:1 fit. The procedure:
as §4

Assay [14] addresses T2, human IL-13 (recombinant E. …). Put plainly: Biacore T100 SPR, mAb captured on anti-human IgG, IL13 analyte. The procedure: (§5) Table 1 details the overall affinities (equilibrium dissociation constant KD) for the selected constructs from the ProteOn screen and the T100 run
(§6) In light of this, mutations at this residue that were not present in the initial screen were tested using the ProteOn using the same method as described earlier and again using antibodies direct from tissue culture supernatants.

Assay [15] shares this target. Put plainly: Biacore T100 SPR, mAb (supernatant) captured on anti-human IgG, IL13 analyte, 1:1 fit.
Source text: as §5

The target is the same in assay [16]. Put plainly: Biacore T100 SPR, purified mAb captured on anti-human IgG, IL13 analyte, 1:1 fit.
Source text: as §5

In assay [17] the target is T1, human IL-4 (recombinant E. …). Put plainly: direct binding ELISA, plate coated with 5 µg/ml human IL-4, anti-human kappa light chain-HRP detection, absorbance at 490 nm. The method, then: An ELISA was performed as described in example 4, coating 96-well high binding plates with 50 μl/well of recombinant E. coli-expressed human IL-4 at 5 μg/ml and incubated at +4° C. overnight.

Assay [18] has as its target T2, human IL-13 (recombinant E. …). The experiment in a line: ProteOn XPR36 SPR, mAb (supernatant) captured on anti-human IgG, IL13 analyte. The method, then:
The initial screen of CDRH3 mutants was carried out on the ProteOn XPR36 (Biorad). […] 3M MgCl₂ was used to regenerate the capture surface, removing the bound CDRH3 mutant antibodies ready for another cycle of capture and analyte injection. The data was fitted to the 1:1 model using the software inherent to the machine.
as §6

T2 sequence (P35225 other isoform, or with tags, fused parts or gaps limits assumed): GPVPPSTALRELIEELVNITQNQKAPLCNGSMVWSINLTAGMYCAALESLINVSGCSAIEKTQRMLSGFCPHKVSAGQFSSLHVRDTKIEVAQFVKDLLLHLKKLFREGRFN

B1: BPC1085 (bispecific antibody, human IgG1, kappa)
heavy: not shown
light: DIVMTQSPLSLPVTPGEPASISCRSSQNIVHINGNTYLEWYLQKPGQSPRLLIYKISDRFSGVPDRFSGSGSGTDFTLKISRVEADDVGIYYCFQGSHVPWTFGQGTKLEIKRTVAAPSVFIFPPSDEQLKSGTASVVCLLNNFYPREAKVQWKVDNALQSGNSQESVTEQDSKDSTYSLSSTLTLSKADYEKHKVYACEVTHQGLSSPVTKSFNRGEC
notes: also called 829H-GS(TVAAPSGS)2-154 (89Q)
As a reminder, the Kd is a measure of binding affinity in units of concentration. As usually defined, the EC50 (read off the curve) is the concentration giving half of the maximal effect. As for B1, the Kd in [1] was determined as 0.078 nM; in assay [3], 0.048 nM; in assay [4], 0.073 nM; in [6], 0.052 nM. Further, the “EC50 (read off the curve)” value in [2] was approximately 4 nM. In [5], the “Mean ND50 value (nM), TF-1 cell proliferation bioassay” value was 9.21 nM.

B2: BPC1626 (bispecific antibody, human IgG1, kappa)
heavy: not shown
light: B1 light
Turning to B2, in assay [7], the “ND50 human IL-13, TF-1 cell proliferation bioassay” value turned out to be 0.681 nM.

B3: BPC1627 (bispecific antibody, human IgG1, kappa)
heavy: not shown
light: B1 light
Turning to B3, in assay [7], the “ND50 human IL-13, TF-1 cell proliferation bioassay” value worked out at 0.615 nM.

B4: BPC1086 (bispecific antibody, human IgG1, kappa)
heavy: not shown
light: B1 light
notes: also called 829H-GS(TVAAPSGS)3-154 (89Q)
Usually koff stands for the rate constant with which the complex falls apart. For orientation: kon means the second-order rate constant of association. Take B4: the “EC50 (read off the curve)” value in assay [2] is approximately 4 nM. Moreover, in [8], the Kd is 0.051 nM, the koff was found to be 6.57e-05 s⁻¹ and the kon was determined as 1.28e+06 M⁻¹ s⁻¹.

B5: BPC1119 (bispecific antibody, human IgG1, kappa)
heavy: not shown
light: B1 light
notes: mAbdAb; dAb Kabat 89 P; also called 829H-(TVAAPS)2GS-154 (89P)
In the case of B5, the binding result in assay [9] is given as “no binding (tested: IL4 up to 64 nM)”.

B6: BPC1115 (bispecific antibody, human IgG1, kappa)
heavy: not shown
light: B1 light
notes: mAbdAb; dAb Kabat 89 Y; also called 829H-(TVAAPS)2GS-154 (89Y)
As for B6, in [10], the Kd stood at 2.29 nM, the dissociation rate constant (koff) worked out at 0.329 s⁻¹ and the kon was 1.44e+08 M⁻¹ s⁻¹.

B7: BPC1112 (bispecific antibody, human IgG1, kappa)
heavy: not shown
light: B1 light
notes: mAbdAb; dAb Kabat 89 K; also called 829H-(TVAAPS)2GS-154 (89K)
B7: in [11], the Kd is 29 nM and the koff is 3.31 s⁻¹.

B8: BPC2230 (bispecific antibody, human IgG1, kappa)
heavy: not shown
light: B1 light
notes: mAbdAb with the original CDRH3 and the unmutated DOM9-155-154 dAb
For the molecule B8, in assay [12], the Kd came out at 0.01 nM.

B9: BPC1113 (bispecific antibody, human IgG1, kappa)
heavy: not shown
light: B1 light
notes: mAbdAb; dAb Kabat 89 D; also called 829H-(TVAAPS)2GS-154 (89D)
As to B9, the binding result in assay [9] is “no binding (tested: IL4 up to 64 nM)”.

B10: BPC2231 (bispecific antibody, human IgG1, kappa)
heavy: not shown
light: B1 light
notes: as for B8
With B10, the Kd was found to be 0.006 nM in [12] and 0.002 nM in [3]. The “EC50 (read off the curve)” value in [2] was approximately 3 nM.

B11: BPC2223 (bispecific antibody, human IgG1, kappa)
heavy: not shown
light: B1 light
notes: as for B8
In the case of B11, the results for the Kd in [13] and in assay [6] were 0.018 nM and 0.01 nM, respectively.

B12: DOM9-155-154 (other)
VL: DIQMTQSPSSLSASVGDRVTITCRASRPISDWLHWYQQKPGKAPKLLIAWASSLQGGVPSRFSGSGSGTDFTLTISSLQPEDFATYYCLQEGWGPPTFGQGTKVEIKR
In the case of B12, the “Mean ND50 value (nM), TF-1 cell proliferation bioassay” value in assay [5] amounted to 0.98 nM.

B13: A1Y100B ValL1 (antibody, human IgG1, kappa, V domains shown)
VH: QVQLVQSGAEVKKPGSSVKVSCKASGFYIKDTYMHWVRQAPGQGLEWMGTIDPANGNTKYVPKFQGRVTITADESTSTAYMELSSLRSEDTAVYYCARSIYDDYHVDDYYAMDYWGQGTLVTVSS
VL: DIVMTQSPLSLPVTPGEPASISCRSSQNIVHINGNTYLEWYLQKPGQSPRLLIYKISDRFSGVPDRFSGSGSGTDFTLKISRVEADDVGIYYCFQGSHVPWTFGQGTKLEIKR
notes: CDRH3 variant of A1L1; also called A1Y100BVAL1; 829 (mAb)
On to B13, for which the Kd came out at 0.025 nM in assay [14], 0.034 nM in assay [15], 0.027 nM in assay [16] and 0.166 nM in assay [18]. Besides, the koff in assay [15] is 3.45e-05 s⁻¹; in assay [16], 2.12e-05 s⁻¹. Further, the kon amounted to 1.02e+06 M⁻¹ s⁻¹ in assay [15] and 776000 M⁻¹ s⁻¹ in assay [16]. Besides, in assay [17], the binding result is “no binding (tested: 10 µg/ml)”.
